{
  "source": "paper PMC5851990",
  "about": "(2018)",
  "binders": {"B1": {"name": "mouse Lphn2^Lec (Latrophilin 2 lectin domain, residues 30-137) (domain or fragment)", "chain": "ALPFGLVRRELSCEGYSIDLRCPGSDVIMIESANYGRTDDKICDADPFQMENTDCYLPDAFKIMTQRCNNRTQCIVVTGSDVFPDPCPGTYKYLEVQYECVPYSKMLV", "modifications": "biotinylated enzymatically in vivo at a C-terminal AviTag"}},
  "key": {"[1]": {"biological_target": "chicken Ten2^ecto wild type (residues 596-2802) (chicken, UniProt Q9DER5 596-2802)", "assay": "SPR"}, "[2]": {"biological_target": "chicken Ten2^ecto P1680L mutant (residues 596-2802) (chicken, UniProt Q9DER5 596-2802, P1680L)", "assay": "SPR"}},
  "data": [
    {"binder": "B1", "values": [
      {"measurement": "Kd", "setting": "[1]", "value": 790, "unit": "nM"},
      {"measurement": "Kd", "setting": "[2]", "value": 740, "unit": "nM"}
    ]}
  ]
}
